We go through two molecules from US20230181714A1.

In general, EC50 refers to the concentration giving half of the maximal effect.

Assay [1] concerns the target VEEV virus-like particles (VLPs) (Venezuelan equine encephalitis virus). As to the kind of experiment: ELISA, binding reactivity (FIG. 1). (In general: In an ELISA, binding on a coated surface is turned into a signal by an enzyme label.)
For assay [2], the target named is recombinant EEEV E1 glycoprotein (Eastern equine encephalitis virus). The experiment in a line: ELISA, binding reactivity (FIG. 1).

A value given as a limit tells only on which side of the number the result lay.

Chain of VEEV virus-like particles (VLPs) (Venezuelan equine encephalitis virus) (P05674 335-757, chain 1 of 2): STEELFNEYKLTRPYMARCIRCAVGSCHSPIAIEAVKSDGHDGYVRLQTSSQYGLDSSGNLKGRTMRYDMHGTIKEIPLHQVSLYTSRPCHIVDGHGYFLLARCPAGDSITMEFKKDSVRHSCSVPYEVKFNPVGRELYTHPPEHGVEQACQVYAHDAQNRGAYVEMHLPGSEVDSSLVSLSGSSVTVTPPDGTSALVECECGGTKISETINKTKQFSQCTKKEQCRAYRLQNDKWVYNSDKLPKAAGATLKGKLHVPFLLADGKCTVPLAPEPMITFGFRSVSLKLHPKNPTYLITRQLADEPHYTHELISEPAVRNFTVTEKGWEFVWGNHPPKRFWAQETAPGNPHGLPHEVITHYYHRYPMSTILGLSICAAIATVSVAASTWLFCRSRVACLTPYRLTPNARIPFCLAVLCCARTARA
Chain of VEEV virus-like particles (VLPs) (Venezuelan equine encephalitis virus) (P05674 813-1254, chain 2 of 2): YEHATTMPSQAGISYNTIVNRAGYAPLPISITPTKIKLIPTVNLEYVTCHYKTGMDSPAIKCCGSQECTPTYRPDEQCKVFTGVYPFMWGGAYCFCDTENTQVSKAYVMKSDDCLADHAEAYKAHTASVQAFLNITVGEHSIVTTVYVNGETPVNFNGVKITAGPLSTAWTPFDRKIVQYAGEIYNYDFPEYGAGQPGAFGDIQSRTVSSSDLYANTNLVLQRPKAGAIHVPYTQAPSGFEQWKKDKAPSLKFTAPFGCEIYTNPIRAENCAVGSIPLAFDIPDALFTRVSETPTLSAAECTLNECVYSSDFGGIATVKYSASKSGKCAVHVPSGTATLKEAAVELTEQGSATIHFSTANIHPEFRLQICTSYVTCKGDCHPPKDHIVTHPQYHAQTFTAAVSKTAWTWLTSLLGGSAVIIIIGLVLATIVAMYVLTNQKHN

B1: VEE-52B (antibody, V domains shown)
VH: QVHLLQSGAEVKKPGASVKVSCKSSGHTFASHGISWVRQAPGQGLEWMGWISVYNGNTNYAQKFQGRVIMTTDTPTSTAYMELRSLRSDDTAVYYCAKDIPSASYTMDVWGEGTTVTV
VL: QSALTQPRSVSGSPGQSVTISCTGTSSDIGRYDYVSWYHQHPGKAPKLMIYDVTKRPSGVPDRFSGSKSGNTASLTISGLHADDEADYYCCSYAGSFYVFGTGTKVTVL
Regarding B1, the EC50 in assay [1] and in assay [2] was < 0.02 µg/mL each time.

B2: VEE-81 (antibody, V domains shown)
VH: QVQLVQSGAEVKKPGASVKVSCKASGYTFTTYYIHWVRQAPGRGLEWMGIINSSGYNTYYAQKFQGRVTMTRDTSTSTVDMELSSLRSEDTAVYYCATSITTRAFDLWGQGTLVTVSS
VL: EIVLTQSPGTLSLSPGERVTLSCRASQSVSSIYLAWYQQRPGQAPRLLIYGASSRATGIPDRFSGSGSGTDFTLTIRRLEPEDFAVYYCQQYGSSPYTFGQGTKLEIK
As for B2, the EC50 in assay [1] and in assay [2] was < 0.02 µg/mL each time.
